Paper PMC10288639

What was measured:
[1] = biological target: G120C/H31C HLA-A*02:01/β2m complex (open HLA-A*02:01); assay: fluorescence polarisation
[2] = biological target: WT HLA-A*02:01/β2m; assay: fluorescence polarisation

Row | Substance | IC50 [1] [nM] | IC50 [2] [nM] | fold of the apparent association rate constant k^app on over WT [1] [fold]
1 | TAX9 (peptide) | 250 | 250 | –
2 | fluorophore-labeled TAX9 (TAMRA-TAX9) (peptide) | – | – | > 10
